Like-named read-outs stand apart in the source and are kept apart here. Starred links: 1 amine or outer side, 2 acyl side, 3 side chain; linkers in the order of their positions; H or OH if unused. Non-standard residues stand in square brackets, D forms with d. Residues, ends and D or L forms follow the SMILES beside them. *: point of attachment. DOTAGA = O=C(O)CN1CCN(CC(=O)O)CCN(C(CCC(=O)*)C(=O)O)CCN(CC(=O)O)CC1; Benzoyl(4-SiFtBu2) = CC(C)(C)[Si](F)(c1ccc(C(=O)*)cc1)C(C)(C)C; DOTA = O=C(O)CN1CCN(CC(=O)O)CCN(CC(=O)*)CCN(CC(=O)O)CC1; d(γGlu) = O=C(O)[C@@H](CCC(=O)[*:2])N[*:1]; 1Nal = N[C@@H](Cc1cccc2ccccc12)C(=O)O; PEG5 = NCCOCCOCCOCCOCCOCCC(=O)O; NMeNle = CCCC[C@H](NC)C(=O)O; PEG4 = NCCOCCOCCOCCOCCC(=O)O; Nle = CCCC[C@H](N)C(=O)O; dDap = NC[C@@H](N)C(=O)O
Experiments:
[1] = molecular target: T1, Human serum albumin (HSA) (Homo sapiens, UniProt P02768); experiment: Determination of HSA binding on a Chiralpak HSA column; format: in vitro ADME; conditions: for HSA binding [%]: Tab. 8, metal not stated (Fig. 18: ^natLu)
T1 construct: purchased Daicel, Tokyo, Japan H13H-2433
T1 sequence (P02768 25-609): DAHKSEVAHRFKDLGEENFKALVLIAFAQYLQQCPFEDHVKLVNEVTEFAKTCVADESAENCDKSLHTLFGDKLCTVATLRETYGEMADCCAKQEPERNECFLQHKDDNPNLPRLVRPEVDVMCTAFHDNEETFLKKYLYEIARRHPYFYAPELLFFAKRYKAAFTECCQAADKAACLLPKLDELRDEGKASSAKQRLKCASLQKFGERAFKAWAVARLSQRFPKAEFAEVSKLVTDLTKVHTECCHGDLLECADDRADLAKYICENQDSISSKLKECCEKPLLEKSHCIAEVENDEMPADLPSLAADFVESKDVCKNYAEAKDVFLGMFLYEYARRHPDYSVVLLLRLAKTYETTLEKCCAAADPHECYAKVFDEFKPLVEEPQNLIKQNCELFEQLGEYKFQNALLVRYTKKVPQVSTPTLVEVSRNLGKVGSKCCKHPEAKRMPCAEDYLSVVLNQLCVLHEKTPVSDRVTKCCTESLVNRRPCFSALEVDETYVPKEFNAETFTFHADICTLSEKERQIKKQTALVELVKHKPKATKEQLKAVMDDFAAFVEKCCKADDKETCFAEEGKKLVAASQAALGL
Protocol: Human serum albumin (HSA) binding of the CCK-2R-targeted compounds was determined as reported by Valko et al., using a Chiralpak HSA column (50 x 3 mm, 5 µm, H13H-2433, Daicel, Tokyo, Japan) at a constant flow rate of 0.5 mL/min at rt. Therefore, an aq. solution of NH4OAc (pH = 6.9, 50 mM) as mobile phase A and isopropanol as mobile phase B were freshly prepared. In order to calibrate the column prior to the experiments, the retention times of nine reference substances with a HSA binding in the range of 13 to 99% were determined using a gradient of 100% A (0 to 3 min), followed by 80% A (3 to 40 min). Furthermore, all substances tested, were dissolved in a mixture (1/1, v/v) of A and B reaching a final concentration of 0.5 mg/mL. The HSA binding of all rhCCK ligands tested, was determined using the same gradient as for the calibration probes. The non-linear regression of the calibration experiments and the CCK-2R ligands (Fig. 29) was established using the OriginPro 2016G software (Northampton, United States).

[2] = n-Octanol-PBS distribution coefficient (logD7.4); format: physicochemical; conditions: for logD7.4 (n ≥ 5), ^177Lu-labeled: pH = 7.4, ^177Lu-labeled
Protocol: Approximately 1 MBq of the labeled tracer was dissolved in 1 mL of a 1/1 mixture (v/v) of phosphate buffered saline (PBS, pH = 7.4) and n-octanol in an Eppendorf tube (1.5 mL). After vigorous mixing of the suspension for 3 min at rt, the vial was centrifuged at 9,000 rpm for 5 min (Biofuge 15, Heraeus Sepatech, Osterode, Germany) and 200 µL aliquots of both layers were measured in a γ-counter. The experiment was repeated at least five times.

CCK-2R = molecular target: T2, CCK-2R (Rattus norvegicus, UniProt P30553); experiment: Determination of IC50: CCK-2R affinity on AR4-2J cells, competition with [^177Lu]Lu-DOTA-PP-F11N; format: binding; conditions: AR4-2J cells
T2 construct: The CCK-2R expressing rat pancreatic tumor cells AR4-2J; host or cells: AR4-2J rat pancreatic tumor cells
T2 sequence (P30553 1-452): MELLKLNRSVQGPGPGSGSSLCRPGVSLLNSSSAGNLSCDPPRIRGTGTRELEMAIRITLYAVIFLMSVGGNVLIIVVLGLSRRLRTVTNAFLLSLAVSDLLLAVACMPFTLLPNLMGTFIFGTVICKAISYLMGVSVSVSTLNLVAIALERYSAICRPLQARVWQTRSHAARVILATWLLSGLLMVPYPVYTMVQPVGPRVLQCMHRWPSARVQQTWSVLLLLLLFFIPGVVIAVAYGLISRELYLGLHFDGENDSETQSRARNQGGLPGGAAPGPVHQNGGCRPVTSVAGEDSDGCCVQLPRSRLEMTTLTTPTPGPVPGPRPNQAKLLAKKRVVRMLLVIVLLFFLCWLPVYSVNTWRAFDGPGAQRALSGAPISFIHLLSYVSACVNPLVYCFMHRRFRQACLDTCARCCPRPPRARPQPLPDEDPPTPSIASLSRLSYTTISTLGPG
Outline: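 Competitive displacement of 0.3 pmol/well [177Lu]Lu-DOTA-PP-F11N by compounds (10^-10 to 10^-4 M) on AR4-2J cells in BSA-supplemented medium, 3 h at 37 °C. Free label was collected from medium plus PBS rinse, and cell-bound label was recovered with 1 M NaOH, both measured by γ-counter. Each IC50 was determined twice, in triplicate.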

[3] = ^natLu-labeled, read-out: IC50 [nM] (n = 3), ^natLu-labeled
[4] = read-out: IC50 [nM] (n = 3), ^natGa-labeled, ^natGa-labeled
[5] = read-out: IC50 [nM] (n = 3), ^natLu-labeled, ^natLu-labeled

Row | SMILES | logD7.4 (n ≥ 5), ^177Lu-labeled [2] | IC50 (CCK-2R; [3]) [nM] | IC50 (CCK-2R; [5]) [nM] | also measured
1 | CCCC[C@@H](C(=O)N[C@@H](CC(=O)O)C(=O)N[C@@H](Cc1cccc2ccccc12)C(N)=O)N(C)C(=O)[C@H](Cc1c[nH]c2ccccc12)NC(=O)CCOCCOCCOCCOCCNC(=O)[C@@H](CCC(=O)O)NC(=O)CN1CCN(CC(=O)O)CCN(CC(=O)O)CCN(CC(=O)O)CC1 [DOTA-CCK-66.2, DOTA-glu-(PEG)3-Trp-(N-Me)Nle-Asp-1-Nal-NH2] ({DOTA}-[dE][PEG4]W[NMeNle]D[1Nal]-NH2) | −2.69 ± 0.09 | 4.8 ± 0.9 | – | HSA binding [%], ^natCu-labeled [1]: 61.1%; HSA binding [%], ^natGa-labeled [1]: 54.2%; HSA binding [%], ^natLu-labeled [1]: 72.7%; logD7.4 (n ≥ 5), ^64Cu-labeled ([2]; pH = 7.4, ^64Cu-labeled): −2.84 ± 0.08; logD7.4 (n ≥ 5), ^67Ga-labeled ([2]; pH = 7.4, ^67Ga-labeled): −2.55 ± 0.04; IC50 (CCK-2R; ^natCu-labeled, read-out: IC50 [nM] (n = 3), ^natCu-labeled): 5.8 ± 0.2 nM; IC50 (CCK-2R; ^natGa-labeled, read-out: IC50 [nM] (n = 3), ^natGa-labeled): 6 ± 1 nM
2 | CCCC[C@@H](C(=O)N[C@@H](CC(=O)O)C(=O)N[C@@H](Cc1cccc2ccccc12)C(N)=O)N(C)C(=O)[C@H](Cc1c[nH]c2ccccc12)NC(=O)CCOCCOCCOCCOCCNC(=O)CC[C@@H](NC(=O)CCOCCOCCOCCOCCOCCNC(=O)[C@@H](CNC(=O)c1ccc([Si](F)(C(C)(C)C)C(C)(C)C)cc1)NC(=O)CN1CCN(CC(=O)O)CCN(CC(=O)O)CCN(CC(=O)O)CC1)C(=O)O [DOTA-rhCCK-67, DOTA-dap(SiFA)-(PEG)4-γ-glu-(PEG)3-Trp-(N-Me)Nle-Asp-1-Nal-NH2] ({DOTA}-[dDap](Benzoyl(4-SiFtBu2))[PEG5][d(γGlu)][PEG4]W[NMeNle]D[1Nal]-NH2) | −1.05 ± 0.09 | 13 ± 1.1 | – | HSA binding [%] [1]: 92.9%; IC50 (CCK-2R; [4]): 49.5 ± 3.7 nM
3 | CCCC[C@@H](C(=O)N[C@@H](CC(=O)O)C(=O)N[C@@H](Cc1cccc2ccccc12)C(N)=O)N(C)C(=O)[C@H](Cc1c[nH]c2ccccc12)NC(=O)CCOCCOCCOCCOCCNC(=O)CC[C@@H](NC(=O)CCOCCOCCOCCOCCOCCNC(=O)CC[C@@H](NC(=O)[C@@H](CNC(=O)c1ccc([Si](F)(C(C)(C)C)C(C)(C)C)cc1)NC(=O)CN1CCN(CC(=O)O)CCN(CC(=O)O)CCN(CC(=O)O)CC1)C(=O)O)C(=O)O [DOTA-rhCCK-68, DOTA-dap(SiFA)-γ-glu-(PEG)4-γ-glu-(PEG)3-Trp-(N-Me)Nle-Asp-1-Nal-NH2] | −1.65 ± 0.09 | 15.4 ± 1.1 | – | HSA binding [%] [1]: 91.2%; IC50 (CCK-2R; [4]): 36.9 ± 5.4 nM
4 | CCCC[C@H](NC(=O)[C@H](Cc1c[nH]c2ccccc12)NC(=O)CNC(=O)[C@H](Cc1ccc(O)cc1)NC(=O)[C@H](C)NC(=O)CC[C@@H](NC(=O)CC[C@@H](NC(=O)CC[C@@H](NC(=O)CC[C@@H](NC(=O)CC[C@@H](NC(=O)CC[C@@H](NC(=O)CC[C@@H](NC(=O)[C@@H](CNC(=O)c1ccc([Si](F)(C(C)(C)C)C(C)(C)C)cc1)NC(=O)CCC(C(=O)O)N1CCN(CC(=O)O)CCN(CC(=O)O)CCN(CC(=O)O)CC1)C(=O)O)C(=O)O)C(=O)O)C(=O)O)C(=O)O)C(=O)O)C(=O)O)C(=O)N[C@@H](CC(=O)O)C(=O)N[C@@H](Cc1ccccc1)C(N)=O (stereo partly drawn) [DOTAGA-MG-SiFA-22, DOTAGA-dap(SiFA)-γ-glu-γ-F11N] | −2.16 ± 0.09 | – | 29.5 ± 1.9 | –
5 | CCCC[C@H](NC(=O)[C@H](Cc1c[nH]c2ccccc12)NC(=O)CNC(=O)[C@H](Cc1ccc(O)cc1)NC(=O)[C@H](C)NC(=O)CC[C@@H](NC(=O)CC[C@@H](NC(=O)CC[C@@H](NC(=O)CC[C@@H](NC(=O)CC[C@@H](NC(=O)CC[C@@H](NC(=O)CC[C@@H](NC(=O)CC[C@@H](NC(=O)[C@@H](CNC(=O)c1ccc([Si](F)(C(C)(C)C)C(C)(C)C)cc1)NC(=O)CCC(C(=O)O)N1CCN(CC(=O)O)CCN(CC(=O)O)CCN(CC(=O)O)CC1)C(=O)O)C(=O)O)C(=O)O)C(=O)O)C(=O)O)C(=O)O)C(=O)O)C(=O)O)C(=O)N[C@@H](CC(=O)O)C(=O)N[C@@H](Cc1ccccc1)C(N)=O (stereo partly drawn) [DOTAGA-MG-SiFA-23, DOTAGA-dap(SiFA)-(γ-glu)2-γ-F11N] | −2.10 ± 0.06 | – | 20.4 ± 2 | –
6 | CCCC[C@H](NC(=O)[C@H](Cc1c[nH]c2ccccc12)NC(=O)CNC(=O)[C@H](Cc1ccc(O)cc1)NC(=O)[C@H](C)NC(=O)CC[C@@H](NC(=O)CC[C@@H](NC(=O)CC[C@@H](NC(=O)CC[C@@H](NC(=O)[C@@H](CNC(=O)c1ccc([Si](F)(C(C)(C)C)C(C)(C)C)cc1)NC(=O)CC[C@@H](NC(=O)CC[C@@H](NC(=O)CC[C@@H](NC(=O)CCC(C(=O)O)N1CCN(CC(=O)O)CCN(CC(=O)O)CCN(CC(=O)O)CC1)C(=O)O)C(=O)O)C(=O)O)C(=O)O)C(=O)O)C(=O)O)C(=O)O)C(=O)N[C@@H](CC(=O)O)C(=O)N[C@@H](Cc1ccccc1)C(N)=O (stereo partly drawn) [DOTAGA-MG-SiFA-24, DOTAGA-(γ-glu)2-[dap(SiFA)^2]γ-F11N] ({DOTAGA-d(γGlu)-d(γGlu)-d(γGlu)}-[dDap](Benzoyl(4-SiFtBu2))[d(γGlu)][d(γGlu)][d(γGlu)][d(γGlu)]AYGW[Nle]DF-NH2) | −2.72 ± 0.05 | – | 66.6 ± 4.4 | –
7 | CCCC[C@H](NC(=O)[C@H](Cc1c[nH]c2ccccc12)NC(=O)CNC(=O)[C@H](Cc1ccc(O)cc1)NC(=O)[C@H](C)NC(=O)CC[C@@H](NC(=O)CC[C@@H](NC(=O)CC[C@@H](NC(=O)CC[C@@H](NC(=O)[C@@H](CNC(=O)c1ccc([Si](F)(C(C)(C)C)C(C)(C)C)cc1)NC(=O)CC[C@@H](NC(=O)CC[C@@H](NC(=O)CC[C@@H](NC(=O)CC[C@@H](NC(=O)CCC(C(=O)O)N1CCN(CC(=O)O)CCN(CC(=O)O)CCN(CC(=O)O)CC1)C(=O)O)C(=O)O)C(=O)O)C(=O)O)C(=O)O)C(=O)O)C(=O)O)C(=O)O)C(=O)N[C@@H](CC(=O)O)C(=O)N[C@@H](Cc1ccccc1)C(N)=O (stereo partly drawn) [DOTAGA-MG-SiFA-25, DOTAGA-(γ-glu)3-[dap(SiFA)^2]γ-F11N] ({DOTAGA-d(γGlu)-d(γGlu)-d(γGlu)-d(γGlu)}-[dDap](Benzoyl(4-SiFtBu2))[d(γGlu)][d(γGlu)][d(γGlu)][d(γGlu)]AYGW[Nle]DF-NH2) | −2.74 ± 0.04 | – | 62.9 ± 8.1 | –
8 | CCCC[C@H](NC(=O)[C@H](Cc1c[nH]c2ccccc12)NC(=O)CNC(=O)[C@H](Cc1ccc(O)cc1)NC(=O)[C@H](C)NC(=O)CC[C@@H](NC(=O)CC[C@@H](NC(=O)CC[C@@H](NC(=O)CC[C@@H](NC(=O)CC[C@@H](NC(=O)[C@@H](CNC(=O)c1ccc([Si](F)(C(C)(C)C)C(C)(C)C)cc1)NC(=O)CC[C@@H](NC(=O)CC[C@@H](NC(=O)CC[C@@H](NC(=O)CC[C@@H](NC(=O)CCC(C(=O)O)N1CCN(CC(=O)O)CCN(CC(=O)O)CCN(CC(=O)O)CC1)C(=O)O)C(=O)O)C(=O)O)C(=O)O)C(=O)O)C(=O)O)C(=O)O)C(=O)O)C(=O)O)C(=O)N[C@@H](CC(=O)O)C(=O)N[C@@H](Cc1ccccc1)C(N)=O (stereo partly drawn) [DOTAGA-MG-SiFA-26, DOTAGA-(γ-glu)4-[dap(SiFA)^1]γ-F11N] ({DOTAGA-d(γGlu)-d(γGlu)-d(γGlu)-d(γGlu)}-[dDap](Benzoyl(4-SiFtBu2))[d(γGlu)][d(γGlu)][d(γGlu)][d(γGlu)][d(γGlu)]AYGW[Nle]DF-NH2) | −2.89 ± 0.04 | – | 37.1 ± 3.8 | –

— patent publication EP4631959A2, “NOVEL MINIGASTRIN-DERIVED CHOLECYSTOKININ 2 RECEPTOR BINDING MOLECULES FOR IMAGING AND TARGETED RADIOTHERAPY” (priority 2022, dated 2024)
